Experimental data from US10774132B2, “Ultralong complementarity determining regions and uses thereof” (THE SCRIPPS RESEARCH INSTITUTE, priority 2012, dated 2020).

Legend:
[1] = tested on: Human mPB CD34+ cells; experiment: Proliferative activity on human granulocyte progenitors (flow cytometry); assay type: cell-based; details: 7 days, flow cytometry
Method: Human mPB CD34^+ cells were purchased from AllCells. Cells were resuspended in HSC expansion medium (StemSpan SFEM, StemCell Technologies) supplemented with 1× antibiotics and the following recombinant human cytokines: thrombopoietin, IL6, Flt3 ligand, and stem cell factor (100 ng/mL, R & D Systems), then plated in 96-well plates (1000 cells per well), with varied concentrations of BLV1H12-bGCSF fusion antibodies. Cells were cultured for 7 days at 37° C. in a 5% CO2 incubator, then analyzed by flow cytometry to measure cell number and expression of CD45ra and CD41. Cells were stained in staining medium (HBSS supplemented with 2% FBS and 2 mM EDTA) at 4° C. for 1 h with PECy7 anti-CD45ra and eFluor 450 anti-CD41 (eBiosciences), then washed with staining medium and analyzed. Multicolor analysis for cell phenotyping was performed on a LSR II flow cytometer (Becton Dickinson). FIGS. 10A-10E and Tables 9-10 show the human granulocyte progenitor cell proliferative activities of the Ab-GCSF fusion antibodies.

[2] = tested on: Mouse NFS-60 cells; experiment: Proliferation assay on mouse NFS-60 cells (AlamarBlue); assay type: cell-based; details: 72 hours
Method: Mouse NFS-60 cells were obtained from American Type Culture Collection (ATCC), VA, and cultured in RPMI-1640 medium supplemented with 10% fetal bovine serum (FBS), 0.05 mM 2-mercapoethanol and 62 ng/ml human macrophage colony stimulating factor (M-CSF). For proliferation assay, mouse NFS-60 cells were washed three times with RPMI-1640 medium and resuspended in RPMI-1640 medium with 10% FBS and 0.05 mM 2-mercapoethanol at a density of 1.5×10^5 cells/ml. In 96-well plates, 100 μl of cell suspension was added into each well, followed by the addition of varied concentrations of bGCSF, BLV1H12 antibody, and the immunoglobulin constructs described herein, Equal volume of PBS buffer was added into the control wells. The plates were incubated at 37° C. in a 5% CO2 incubator for 72 hours. Cells were then treated with AlamarBlue (Invitrogen) ( 1/10 volume of cell suspension) for 4 hours at 37° C. Fluorescence at 595 nm for each well was read to indicate the cell viability.

[3] = tested on: untransfected HEK293A cells; experiment: Immunocytometric analysis, untransfected HEK293A cells; assay type: binding, human; details: 10 μg/ml antibody
Method: (§1) Additionally, binding of the chimeric recombinant antibodies to BVDV antigens was evaluated by immunocytometric analysis of transfected human embryonic kidney (HEK) 293A cells (Invitrogen), as previously described (see, e.g., Njongmeta et al. (2012) Vaccine 30:1624-1635). Briefly, HEK 293A monolayers grown in 6-well tissue culture plates were transfected with 2 µg/well of plasmid (pCDNA3.3, Invitrogen) encoding BVDV antigens (N^pro, E2, or non-structural proteins NS2-3) using Lipofectamine 2000 reagent (Invitrogen), and incubated for 48 hr at 37° C. with 5% CO2. The monolayers were fixed with ice-cold 100% methanol for 10 minutes, rinsed with PBS, and after blocking for 1 hr with PBS containing 5% fetal bovine serum (blocking buffer), the monolayers were incubated at room temperature for 1 hr with 10 μg/ml of a mouse anti-FLAG M2-alkaline phosphatase (AP)-conjugate (Sigma) in blocking buffer or 10 μg/ml of the chimeric recombinant antibodies (H12 or B8). […] Following washes in blocking buffer, the AP activity in all the wells was detected using Fast Red AS-MX substrate (Sigma). […]

[4] = tested on: NS2-3 non-structural proteins of BVDV; experiment: Immunocytometric analysis of HEK 293A cells transfected with BVDV antigens; assay type: binding, bovine viral diarrhea virus; details: 10 μg/ml antibody
Method: as §1

[5] = tested on: Parental U2OS; experiment: Flow cytometry binding to parental U2OS cells; details: cell culture supernatant
Method: (§2) Briefly, a cell line expressing functionally validated CXCR1 derived from U2OS cells was obtained from DiscoveRx and cultured per manufacturer's instructions (Cat #93-0226C3, DiscoveRx Corporation, Freemont, Calif.). The parental cell line U2OS was obtained from ATCC and cultured under the same conditions as the CXCR1 cells. Cell culture supernatants from Example 2 above were then tested for binding to cells by flow cytometry. The adherent U2OS or CXCR1-U2OS cells were dissociated with Accutase (Innovative Cell Technologies, Inc., San Diego, Calif.), neutralized with an equal volume of media containing 10% serum, centrifuged at 1000 g, and resuspended in PBS with 2% BSA. Next, cells were dispensed into microtiter plates to achieve between 30,000 to 300,000 cells per well, centrifuged again, and resuspended in cell culture supernatant containing expressed IgG, or a dilution of IgG-containing cell culture supernatant. A fluorescent-conjugated anti-Human Fc antibody was used to detect binding of the expressed BLV1H12-IL8 fusion proteins to cells.

[6] = target: T1, CXCR1 (Homo sapiens, UniProt P25024); experiment: Flow cytometry binding to CXCR1-U2OS cells
T1 construct: host or cells: U2OS
T1 sequence (P25024 1-350): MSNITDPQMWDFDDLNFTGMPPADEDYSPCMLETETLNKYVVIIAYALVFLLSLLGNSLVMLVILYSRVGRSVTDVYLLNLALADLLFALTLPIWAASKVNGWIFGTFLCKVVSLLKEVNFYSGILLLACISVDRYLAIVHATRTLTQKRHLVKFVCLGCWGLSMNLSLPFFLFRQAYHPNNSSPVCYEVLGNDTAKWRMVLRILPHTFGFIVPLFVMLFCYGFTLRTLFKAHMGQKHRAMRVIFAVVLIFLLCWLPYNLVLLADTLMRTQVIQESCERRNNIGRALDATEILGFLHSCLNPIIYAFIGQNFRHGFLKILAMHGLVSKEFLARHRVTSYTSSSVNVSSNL
Method: as §2

[7] = Pharmacokinetics in mice (ELISA of blood samples); assay type: in vivo; details: 70 μg injected, BALB/c mice
Method: For PK study in mice, 70 μg of the immunoglobulin constructs described herein were injected into 3 BALB/c mice per group. Blood samples were drawn from time 0 to 14 days with extended intervals and analyzed by ELISA using anti-human IgG Fc antibody with horseradish peroxidase (HRP) labeled (KPL) and anti-6×His antibody (“6×His” disclosed as SEQ ID NO: 511) with HRP labeled (Clontech). Data were normalized by taking maximal concentration at the first time point (30 min).

[8] = tested on: mice neutrophils; experiment: Neutrophil counts in mice, 10th day after injection; assay type: in vivo; details: blood stained and counted at the 10th day post-injection
Method: On the 10th day after injection of BLV1H12-bGCSF fusion antibodies into mice for PK study, blood samples were drawn from the mice and stained using the Diff Quick Staining Kit (Thermo Fisher Scientific, IL). Neutrophils and white blood cells were counted under microscope and the percentages of neutrophils were analyzed. FIGS. 12A-12B and Table 12 show proliferative activities of BLV1H12-bGCSF fusion antibodies on mice neutrophils that are blood stained and counted at the 10th day post-injection.

B1: hGCSF: human G-CSF (protein, UniProt P09919 31-207, looked up)
Granulocyte …: TPLGPASSLPQSFLLKCLEQVRKIQGDGAALQEKLVSECATYKLCHPEELVLLGHSLGIPWAPLSSCPSQALQLAGCLSQLHSGLFLYQGLLQALEGISPELGPTLDTLQLDVADFATTIWQQMEELGMAPALQPTQGAMPAFASAFQRRAGGVLVASHLQSFLEVSYRVLRHLAQP
- Number of CD45RA-CD41- ([1]; 4.11523 ng/mL): 5900
- F.I. (fluorescence at 595 nm, AlamarBlue, cell viability) ([2]; 0.09145 ng/mL): 1266.554
- F.I. (fluorescence at 595 nm, AlamarBlue, cell viability) ([2]; 0.27435 ng/mL): 1478.287
- F.I. (fluorescence at 595 nm, AlamarBlue, cell viability) ([2]; 0.82305 ng/mL): 1752.216
- F.I. (fluorescence at 595 nm, AlamarBlue, cell viability) ([2]; 2.46914 ng/mL): 2224.028
- F.I. (fluorescence at 595 nm, AlamarBlue, cell viability) ([2]; 7.40741 ng/mL): 2587.222
- F.I. (fluorescence at 595 nm, AlamarBlue, cell viability) ([2]; 22.22222 ng/mL): 2751.249
- F.I. (fluorescence at 595 nm, AlamarBlue, cell viability) ([2]; 66.66667 ng/mL): 2815.37
- F.I. (fluorescence at 595 nm, AlamarBlue, cell viability) ([2]; 200 ng/mL): 2948.509

B2: H12 (protein, listed as Bos taurus)
chain: CVIVHQKTTQQSSCPAGFRDCVACTPGPESCCRSGCDGARRRVGLRYFFDSTSPITTYTYEHHIDAW
modifications: H12
- binding to untransfected cells [3]: weakly bound
- binding to HEK293A cells transfected with NS2-3 of BVDV [4]: strongly binds

B3: BLV1H12-IL8: human IL-8 (amino acids 26-99) replacing the knob domain of BLV1H12 CDR3H, SEQ ID NO: 38 (antibody)
heavy: QVQLRESGPSLVKPSQTLSLTCTASGFSLSDKAVGWVRQAPGKALEWLGSIDTGGNTGYNPGLKSRLSITKDNSKSQVSLSVSSVTTEDSATYYCTSVHQETKKYQSPRSAKELRCQCIKTYSKPFHPKFIKELRVIESGPHCANTEIIVKLSDGRELCLDPKENWVQRVVEKFLKRAENSGSGSYTYNYEWHVDVWGQGLLVTV
- Median Arbitrary Fluorescence Units (IgG binding) [5]: 76 AFU
- specificity (ratio of median fluorescence of CXCR1-U2OS cells versus U2OS parental cells) [6]: has specificity for CXCR1
- Median Arbitrary Fluorescence Units (IgG binding) ([6]; CXCR1-U2OS cells, cell culture supernatant, flow cytometry): 707 AFU

B4: bGCSF: bovine G-CSF (protein, listed as Bos taurus)
chain: TPLGPARSLPQSFLLKCLEQVRKIQADGAELQERLCAAHKLCHPEELMLLRHSLGIPQAPLSSCSSQSLQLTSCLNQLHGGLFLYQGLLQALAGISPELAPTLDTLQLDVTDFATNIWLQMEDLGAAPAVQPTQGAMPTFTSAFQRRAGGVLVASQLHRFLELAYRGLRYLAEP
modifications: bGCSF
notes: bovine G-CSF
- Number of CD45RA-CD41- ([1]; 0.55886 ng/mL): 7354
- Number of CD45RA-CD41- ([1]; 1.67657 ng/mL): 9776
- Number of CD45RA-CD41- ([1]; 5.02972 ng/mL): 12700
- Number of CD45RA-CD41- ([1]; 15.08916 ng/mL): 13200
- Number of CD45RA-CD41- ([1]; 45.26749 ng/mL): 13700
- Number of CD45RA-CD41- ([1]; 135.80247 ng/mL): 13300
- Number of CD45RA-CD41- ([1]; 407.40741 ng/mL): 13700
- Number of CD45RA-CD41- ([1]; 1222.22222 ng/mL): 14100
- Number of CD45RA-CD41- ([1]; 3666.66667 ng/mL): 13100
- Number of CD45RA-CD41- ([1]; 11000 ng/mL): 13800
- Percentage (blood level normalized to first time point, 30 min) ([7]; 0.5 hour): 100.00%
- Percentage (blood level normalized to first time point, 30 min) ([7]; 1 hour): 79.52%
- Percentage (blood level normalized to first time point, 30 min) ([7]; 3 hour): 56.81%
- Percentage (blood level normalized to first time point, 30 min) ([7]; 6 hour): 14.94%
- Percentage (blood level normalized to first time point, 30 min) ([7]; 24 hour): 4.08%
- Percentage (blood level normalized to first time point, 30 min) ([7]; 48 hour): 0.00%
- Percentage (blood level normalized to first time point, 30 min) ([7]; 72 hour): 0.00%
- F.I. (fluorescence at 595 nm, AlamarBlue, cell viability) ([2]; 0.09145 ng/mL): 1214
- F.I. (fluorescence at 595 nm, AlamarBlue, cell viability) ([2]; 0.27435 ng/mL): 1360.925
- F.I. (fluorescence at 595 nm, AlamarBlue, cell viability) ([2]; 0.82305 ng/mL): 1761
- F.I. (fluorescence at 595 nm, AlamarBlue, cell viability) ([2]; 2.46914 ng/mL): 2101
- F.I. (fluorescence at 595 nm, AlamarBlue, cell viability) ([2]; 7.40741 ng/mL): 2405
- F.I. (fluorescence at 595 nm, AlamarBlue, cell viability) ([2]; 22.22222 ng/mL): 2646
- F.I. (fluorescence at 595 nm, AlamarBlue, cell viability) ([2]; 66.66667 ng/mL): 2812.098
- F.I. (fluorescence at 595 nm, AlamarBlue, cell viability) ([2]; 200 ng/mL): 3087.144
- Percentage of Neutrophil [8]: 16.48
